# In patent US7226791B2, “Polynucleotides encoding novel guanylate binding proteins (GBP's)” (Bristol-Myers Squibb Company, priority 2003, dated 2007):
# Columns and labels:
# Settings in all cases: myc-tagged protein expressed in Cos-7 cells; FIG. 49
# [1] = Guanine nucleotide binding: Cos-7 lysates on agarose coated with GTP, myc western blot
# Protocol: (§1) Genes encoding different GBP family members were cloned into the vector pcDNA3.1mychis (Invitrogen) for expression in mammalian cells. Cos-7 cells were transfected with 5 μg of DNA per group using lipofectamine 2000 (Invitrogen) according to manufacturer's instructions. Approximately 18 hours after transfection, the cells were harvested using trypsin and lysed in RIPA buffer (10 mM sodium phosphate pH 7.2, 0.25 M sodium chloride, 0.1% SDS, 1% NP40, 1% sodium deoxycholate, 2 mM EDTA, protease inhibitor cocktail). An aliquot of the lysate was reserved for the whole cell lysate sample. The remainder was divided in thirds, and incubated for three hours at 4° C. with agarose coated with either GTP, GDP, or GMP (Sigma Chemical Company). The beads were pelleted, washed with buffer (0.1% NP40, 150 mM NaCl, 50 mM Tris pH7.5), and resuspended in SDS sample buffer. Samples were electrophoresed through 4–20% tris-glycine gels, transferred to nitrocellulose, blocked overnight with 5% non-fat dry milk and 0.3% BSA in Tris-buffered saline, and probed with a mouse monoclonal antibody specific for the myc epitope tag (Invitrogen).
# [2] = Guanine nucleotide binding: Cos-7 lysates on agarose coated with GDP, myc western blot
# Protocol: as §1
# [3] = Guanine nucleotide binding: Cos-7 lysates on agarose coated with GMP, myc western blot
# Protocol: as §1
Molecule,binding to GTP agarose beads [1],binding to GDP agarose beads [2],binding to GMP agarose beads [3]
"FLJ10961: human guanylate binding protein HGBPBMY4, AA SEQ ID NO:9 (protein, listed as Homo sapiens) MAPEIHMTGPMCLIENTNGELVANPEALKILSAITQPVVVVAIVGLYRTGKSYLMNKLAGKNKGFSLGSTVKSHTKGIWMWCVPHPKKPEHTLVLLDTEGLGDVKKGDNQNDSWIFTLAVLLSSTLVYNSMGTINQQAMDQLYYVTELTHRIRSKSSPDENENEDSADFVSFFPDFVWTLRDFSLDLEADGQPLTPDEYLEYSLKLTQGNRKLAQLEKLQDEELDPEFVQQVADFCSYIFSNSKTKTLSGGIKVNGPCLESLVLTYINAISRGDLPCMENAVLALAQIENSAAVQKAIAHYDQQMGQKVQLPAETLQELLDLHRVSEREATEVYMKNSFKDVDHLFQKKLAAQLDKKRDDFCKQNQEASSDRCSALLQVIFSPLEEEVKAGIYSKPGGYCLFIQKLQDLEKKYYEEPRKGIQAEEILQTYLKSKESVTDAILQTDQILTEKEKEIEVECVKAESAQASAKMVEEMQIKYQQMMEEKEKSYQEHVKQLTEKMERERAQLLEEQEKTLTSKLQEQARVLKERCQGESTQLQNEIQKLQKTLKKKTKRYMSHKLKI",weakly,bound well,bound well
"GBP-1: known guanylate binding protein family member, myc-tagged, expressed in Cos-7 cells (protein, UniProt P32455 1-589, looked up, myc tag) Guanylate-binding protein 1: MASEIHMTGPMCLIENTNGRLMANPEALKILSAITQPMVVVAIVGLYRTGKSYLMNKLAGKKKGFSLGSTVQSHTKGIWMWCVPHPKKPGHILVLLDTEGLGDVEKGDNQNDSWIFALAVLLSSTFVYNSIGTINQQAMDQLYYVTELTHRIRSKSSPDENENEVEDSADFVSFFPDFVWTLRDFSLDLEADGQPLTPDEYLTYSLKLKKGTSQKDETFNLPRLCIRKFFPKKKCFVFDRPVHRRKLAQLEKLQDEELDPEFVQQVADFCSYIFSNSKTKTLSGGIQVNGPRLESLVLTYVNAISSGDLPCMENAVLALAQIENSAAVQKAIAHYEQQMGQKVQLPTETLQELLDLHRDSEREAIEVFIRSSFKDVDHLFQKELAAQLEKKRDDFCKQNQEASSDRCSALLQVIFSPLEEEVKAGIYSKPGGYRLFVQKLQDLKKKYYEEPRKGIQAEEILQTYLKSKESMTDAILQTDQTLTEKEKEIEVERVKAESAQASAKMLQEMQRKNEQMMEQKERSYQEHLKQLTEKMENDRVQLLKEQERTLALKLQEQEQLLKEGFQKESRIMKNEIQDLQTKMRRRKAC",bound well,bound well,bound well
"GBP-2: known guanylate binding protein family member, myc-tagged, expressed in Cos-7 cells (protein, UniProt P32456 1-588, looked up, myc tag) Guanylate-binding protein 2: MAPEINLPGPMSLIDNTKGQLVVNPEALKILSAITQPVVVVAIVGLYRTGKSYLMNKLAGKKNGFSLGSTVKSHTKGIWMWCVPHPKKPEHTLVLLDTEGLGDIEKGDNENDSWIFALAILLSSTFVYNSMGTINQQAMDQLHYVTELTDRIKANSSPGNNSVDDSADFVSFFPAFVWTLRDFTLELEVDGEPITADDYLELSLKLRKGTDKKSKSFNDPRLCIRKFFPKRKCFVFDWPAPKKYLAHLEQLKEEELNPDFIEQVAEFCSYILSHSNVKTLSGGIPVNGPRLESLVLTYVNAISSGDLPCMENAVLALAQIENSAAVEKAIAHYEQQMGQKVQLPTETLQELLDLHRDSEREAIEVFMKNSFKDVDQMFQRKLGAQLEARRDDFCKQNSKASSDCCMALLQDIFGPLEEDVKQGTFSKPGGYRLFTQKLQELKNKYYQVPRKGIQAKEVLKKYLESKEDVADALLQTDQSLSEKEKAIEVERIKAESAEAAKKMLEEIQKKNEEMMEQKEKSYQEHVKQLTEKMERDRAQLMAEQEKTLALKLQEQERLLKEGFENESKRLQKDIWDIQMRSKSLEPIC",bound well,bound well,bound well
"AK096141: human guanylate binding protein HGBPBMY1, AA SEQ ID NO:3 (protein, listed as Homo sapiens) MASEIHMPGPVCLIENTKGHLVVNSEALEILSAITQPVVVVAIVGLYRTGKSYLMNKLAGKNKGFPLGCTVKSETKGIWMWCVPHPSKPNHTLILLDTEGLGDMEKSDPKSDSWIFALAVLLSSSFVYNSMGTINHQALEQLHYVTELTELIRAKSCPRPDEVEDSSEFVSFFPDFIWTVRDFTLELKLDGHPITEDEYLENALKLISGKNPQIQNSNKPREWIRHFFPKQKCFVFDRPINDKKLLLHVEEVREDQLDSNFQMQSENFCSYIFTHAKTKTLREGILVTGNRLGMLVETYLDAINSGATPCLENAMAVLAQCENSAAVQRAANHYSQQMAQQVRFPTDTLQELLDVHAVCEREAIAVFMEYSFKDKSQEFQKKLVDTMEKKKEDFVLQNEEASAKYCQAELKRLSELLTESISRGTFFVPGGHNIYLEAKKKIEQDYTLVPRKGVKADEVLQSFLQSQVVIEESILQSDKALTAGEKAIAAKQAKKEAAEKEQELLRQKQKEQQQMMEAQERSFQENIAQLKKKMERERENYMRELRKMLSHKMKVLEELLTEGFKEIFESLNEEINRLKEQIEAAENEEPSVFSQILDVAGSIFIAALPGAAKLVDLGMKILSSLCNRLRNPGKKIIS",not at all,bound weakly,bound weakly
"GBP-5: known guanylate binding protein family member, myc-tagged, expressed in Cos-7 cells (protein, UniProt Q96PP8 1-583, looked up, myc tag) Guanylate-binding protein 5: MALEIHMSDPMCLIENFNEQLKVNQEALEILSAITQPVVVVAIVGLYRTGKSYLMNKLAGKNKGFSVASTVQSHTKGIWIWCVPHPNWPNHTLVLLDTEGLGDVEKADNKNDIQIFALALLLSSTFVYNTVNKIDQGAIDLLHNVTELTDLLKARNSPDLDRVEDPADSASFFPDLVWTLRDFCLGLEIDGQLVTPDEYLENSLRPKQGSDQRVQNFNLPRLCIQKFFPKKKCFIFDLPAHQKKLAQLETLPDDELEPEFVQQVTEFCSYIFSHSMTKTLPGGIMVNGSRLKNLVLTYVNAISSGDLPCIENAVLALAQRENSAAVQKAIAHYDQQMGQKVQLPMETLQELLDLHRTSEREAIEVFMKNSFKDVDQSFQKELETLLDAKQNDICKRNLEASSDYCSALLKDIFGPLEEAVKQGIYSKPGGHNLFIQKTEELKAKYYREPRKGIQAEEVLQKYLKSKESVSHAILQTDQALTETEKKKKEAQVKAEAEKAEAQRLAAIQRQNEQMMQERERLHQEQVRQMEIAKQNWLAEQQKMQEQQMQEQAAQLSTTFQAQNRSLLSELQHAQRTVNNDDPC",weakly,bound well,bound well
